# Assay results: article PMC13364712
# Molecular target: actin filaments (actin from Gallus gallus skeletal muscle) (Gallus gallus (chicken)) (UniProt P68139)
# Test: co-sedimentation; 4 µM EGFP–SFM peptide with 0–200 µM actin filaments in F buffer, 1 h at room temperature, 100,000g for 30 min; pellet read by anti-EGFP western blot; one-site specific binding fit; apparent
row,Kd,Substance
1,6 µM,"EGFP-tagged USP54 SFM peptide, wild type"
2,2 µM,EGFP–Lifeact (peptide)
